This note sets out measurements from patent publication US20100273722.

No end group written: not given here.

A short description of data set [1]: sedimentation equilibrium AUC, self-association, 25 C.
A short description of data set [2]: sedimentation equilibrium AUC, self-association, 5 C.
Data set [3] in a line: sedimentation equilibrium AUC, self-association, 10 C.
Data set [4] can be described thus: sedimentation equilibrium AUC, self-association, 15 C.
Data set [5] can be described thus: sedimentation equilibrium AUC, self-association, 20 C.
Data set [6] can be described thus: sedimentation equilibrium AUC, self-association, 30 C.

As to GPSQPTAPGDDAPVEDLIRFYDNLRQYLNVVTRHRY-NH2 [aPP^Y7AQ25R], in data set [1], the % monomer at 30 µM was 78%.
GPSQPTYPGDDAPVEDLIRFADNLQQYLNVVTRHRY-NH2 [aPP^Y21A]: in data set [1], the % monomer at 30 µM is 14%.
As for GPSQPTAPGDDAVPEDLIRFYDNLQQYLNVVTRHRY-NH2 [aPP^Y7AP13VV14P], in data set [1], the % monomer at 30 µM was determined as 90%.
For the protein GPSQPTAPGDDASPEDLIRFYDNLQQYLNVVTRHRY-NH2 [aPP^Y7AP13SV14P], the % monomer at 30 micromolar total peptide in data set [2] came out at 74%; in data set [3], 82%; in data set [4], 84%; in data set [5] it was 90%; in data set [1], 90%; in data set [6], 98%.
In turn, GPSQPTYPGDDAPVEDLIRAYDNLQQYLNVVTRHRY-NH2 [aPP^F20A] yielded a % monomer at 30 µM in data set [1] of 100%.
On the same count and under the same terms, the same measure for GPSQPTAPGDDAPVEDLIRFYDNLQQYLNVVTRHRY-NH2 [aPP^Y7A]: 98%.
Same read-out and setting: in the case of GPSQPEAPGDDAPVEDLIRFYDNLQQYLNVVTRHRY-NH2 [aPP^Y7AT6E] it was 79%.
As to GPSQPTYPGDDAPVEDLIRFYDNLQQYLNVVTRHRY (ends and bridges not checked) [avian pancreatic polypeptide (aPP)], the % monomer at 30 µM in data set [1] turned out to be 23%.
